Laboratory results published in US20150274802A1.

How the values were obtained:
[1] = target: type A insulin receptor (UniProt P06213); assay: cell-based or functional assay
[2] = target: type B insulin receptor (UniProt P06213); assay: cell-based or functional assay
[3] = target: type A insulin receptor (UniProt P06213); assay: competitive binding SPA, [125I]insulin
[4] = target: type A insulin receptor (UniProt P06213); assay: binding assay

In the case of “#31: IGF-2 analog B^2-C^2[K8]-A^2-D^2[R4] (from UniProt P01344 25-91) (ligand)”, the potency [1] is reported as 2 fold and the potency [2] is reported as 2 fold.

For “#48: Cys^B1-Cys^B1 #2* dimer, B^1[C1H5Y16L17O22R29]29:A^1[O9,14,15N18,21] (ligand)”, the % receptor activity, phosphorylation assay [1] was 102% and the % receptor activity (binding assay) [3] was 147%.

“Cys-Cys^B1 peptide (analog #2* with Cys^B1 disulfide-bonded to free cysteine) (ligand)” gave a % activity, phosphorylation assay [1] of 23.1% and a % activity (binding assay) [3] of 55.4%.

For “Insulin analog B^1[H5Y16L17O22R29]29:A^1[O9,14,15N18,21] (ligand)”, the % activity (binding assay) [4] was 55%.
